B1: OR4K15 (parent)
chain: GUUAACGGUCAUAGGCCAUGGAAACUAGGAGCACCAUUUCGCUGCCAGUGAAGAAAUGAACAAAGAAAAUCUGGGCCAGGCAGGCAUCAAAAGAAAUAGUCUUGCGCUCAACCAGAAAGUCUGUAAUCAUUUUAAGGGUA

Variants of: B1
Assay: self-cleavage, relative activity (ratio to wild type); higher = more cleavage; in vitro, sequencing; the parent is a self-cleaving ribozyme

Variant	self-cleavage
GUUAACGGUCAUAGGCCAUGGAAACUAGGAGCACCAUUUCGCUGCCAGUGAAGAAACGAACAAAGAAAAUCUGGGCCAGGCAGGCAUCAAAAGAAAUAGUCUUGCGCUCAACCAGAAAGUCUGUAAUCAUUUCAAGGGUA [U57C U133C]	1.02
GUUAACGGUCAUAGGCCAUGGAAACUAGGAGCACCAUUUCGCUGCCAGUGAAGAAAGGAACAAAGAAAAUCUGGGCCAGGCAGGCAUCAAAAGAAAUAGUCUUGCGCUCGACCAGAAAGUCUGUAAUCAUUUUAAGGGUA [U57G A110G]	0.17
GUUAACGGUCAUAGGCCAUGGAAACUAGGAGCACCAUUUCGCUGCCAGUGAAGAAACGAACAAAGAAAAUCUGGGCCAGGCAGGCAUCAAAAGAAAUAGUCUUGCGCUCAACCAGAAAGUCUGUAAUCACUUUAAGGGUA [U57C U130C]	0.78
GUUAACGGUCAUAGGCCAUGGAAACUAGGAGCACCAUUUCGCUGCCAGUGAAGAAACGAACAAAGAAAAUCUGGGCCAGGCAGGCAUCAAAAGAAAUAGUCUUGCGCUCAACCAGAAAGUCUGUAAUCUUUUUAAGGGUA [U57C A129U]	1.47
GUUAACGGUCAUAGGCCAUGGAAACUAGGAGCACCAUUUCGCUGCCAGUGAAGAAACGAACAAAGAAAAUCUGGGCCAGGCAGGCAUCAAAAGAAAUAGUCUUGCGCUCAACCAGAAAGUCUGUAAUCGUUUUAAGGGUA [U57C A129G]	1.43
GUUAACGGUCAUAGGCCAUGGAAACUAGGAGCACCAUUUCGCUGCCAGUGAAGAAACGAACAAAGAAAAUCUGGGCCAGGCAGGCAUCAAAAGAAAUAGUCUUGCGCUCAACCGGAAAGUCUGUAAUCAUUUUAAGGGUA [U57C A114G]	0.12
GUUAACGGUCAUAGGCCAUGGAAACUAGGAGCACCAUUUCGCUGCCAGUGAAGAAACGAACAAAGAAAAUCCGGGCCAGGCAGGCAUCAAAAGAAAUAGUCUUGCGCUCAACCAGAAAGUCUGUAAUCAUUUUAAGGGUA [U57C U72C]	0.04
GUUAACGGUCAUAGGCCAUGGAAACUAGGAGCACCAUUUCGCUGCCAGUGAAGAAACGAACAAAGAAAAUCAGGGCCAGGCAGGCAUCAAAAGAAAUAGUCUUGCGCUCAACCAGAAAGUCUGUAAUCAUUUUAAGGGUA [U57C U72A]	0.18
GUUAACGGUCAUAGGCCAUGGAAACUAGGAGCACCAUUUCGCUGCCAGUGAAGAAACGAACAAAGAAAAUCUGGGCCAGGCAGGCAACAAAAGAAAUAGUCUUGCGCUCAACCAGAAAGUCUGUAAUCAUUUUAAGGGUA [U57C U87A]	0.98
GUUAACGGUCAUAGGCCAUGGAAACUAGGAGCACCAUUUCGCUGCCAGUGAAGAAACGAACAAAGAAAAUCUGGGCCAGGCAGGCAUCAAAAGAAAUAGUCUUGCGCACAACCAGAAAGUCUGUAAUCAUUUUAAGGGUA [U57C U108A]	0.02
GUUAACGGUCAUAGGCCAUGGAAACUAGGAGCACCAUUUCGCUGCCAGUGAAGAAACGAACAAAGAAAAUCUGGGCCAGGCAGGCAUCAAAAGAAAUAGUCUUGCGCUCAACCAGGAAGUCUGUAAUCAUUUUAAGGGUA [U57C A116G]	0.33
GUUAACGGUCAUAGGCCAUGGAAACUAGGAGCACCAUUUCGCUGCCAGUGAAGAAACGAACAAAGAAAAUCUGGGCCAGGCAGGCAUCAAAAGAAAUAGUCUUGCGCUCAACCAGUAAGUCUGUAAUCAUUUUAAGGGUA [U57C A116U]	0.33
GUUAACGGUCAUAGGCCAUGGAAACUAGGAGCACCAUUUCGCUGCCAGUGAAGAAACGAACAAAGAAAAUCUGGGCCAGGCAGGCAUCAAAAGAAAUAGUCUUGCGCUCAACCAGAAAGUCUGUAAACAUUUUAAGGGUA [U57C U127A]	1.19
GUUAACGGUCAUAGGCCAUGGAAACUAGGAGCACCAUUUCGCUGCCAGUGAAGAAACGAACAAAGAAAAUCUGGGCCAGGCAGGCAUCAAAAGAAAUAGUCUUGCGCUCAACCAGAAAGUCUGUAACCAUUUUAAGGGUA [U57C U127C]	0.66
GUUAACGGUCAUAGGCCAUGGAAACUAGGAGCACCAUUUCGCUGCCAGUGAAGAAAGGAACAAAGAAAAUCUGGGCCAGGCAGGCAUCAAAAGAAAUAGUCUUGCGCUCAACCAGAGAGUCUGUAAUCAUUUUAAGGGUA [U57G A117G]	2.08
GUUAACGGUCAUAGGCCAUGGAAACUAGGAGCACCAUUUCGCUGCCAGUGAAGAAAGGAACAAAGAAAAUCUGGGCCAGGCAGGCAUCAGAAGAAAUAGUCUUGCGCUCAACCAGAAAGUCUGUAAUCAUUUUAAGGGUA [U57G A90G]	0.88
GUUAACGGUCAUAGGCCAUGGAAACUAGGAGCACCAUUUCGCUGCCAGUGAAGAAACGAACAAAGAAAAUCUGGGCCAGGCAGGCAUCAAAAGAAAUAGUCUUGCGCUCAACCAGAAAGUCUGUAGUCAUUUUAAGGGUA [U57C A126G]	0.4
GUUAACGGUCAUAGGCCAUGGAAACUAGGAGCACCAUUUCGCUGCCAGUGAAGAAACGAACAAAGAAAAUCUGGGCCAGGCAGGCAUCAAAAGAAAUAGUCUUGCGCUCAACCAGAAAGUCUGUGAUCAUUUUAAGGGUA [U57C A125G]	0.29
GUUAACGGUCAUAGGCCAUGGAAACUAGGAGCACCAUUUCGCUGCCAGUGAAGAAACGAACAAAGAAAAUCUGGGCCAGGCAGGCAUCAAAAGAAAUAGUCUUGCUCUCAACCAGAAAGUCUGUAAUCAUUUUAAGGGUA [U57C G106U]	0.03
GUUAACGGUCAUAGGCCAUGGAAACUAGGAGCACCAUUUCGCUGCCAGUGAAGAAACGAACAAAGAAAAUCUGGGCCAGGCAGGCAUCAAAAGAAAUAGUAUUGCGCUCAACCAGAAAGUCUGUAAUCAUUUUAAGGGUA [U57C C101A]	0.1
